Test results as given in paper PMC6304933.

Target: Thermosynechococcus elongatus BP-1 Fed2 (Thermosynechococcus elongatus BP-1)
Assay: SDS/PAGE

## Thermosynechococcus elongatus BP-1 Fed2 (natural protein)
  stoichiometry N: 2
